In patent US20140087995A1 (published 2014):
Numbered stars: 1 amine (or outer) side, 2 acyl side, 3 side chain; on linkers, the order of the positions; unused ones are H or OH. Bridge positions count the residues as written; N and C are the ends. Side chains are listed from the residue outwards. Ends that are not written are not given here. * marks the point of attachment. C20 diacid = O=C(O)CCCCCCCCCCCCCCCCCCC(=O)*; γGlu = O=C(O)[C@H](CCC(=O)[*:2])N[*:1]

T1: human calcitonin receptor (human, UniProt P30988 25-474)
T1 sequence (looked up): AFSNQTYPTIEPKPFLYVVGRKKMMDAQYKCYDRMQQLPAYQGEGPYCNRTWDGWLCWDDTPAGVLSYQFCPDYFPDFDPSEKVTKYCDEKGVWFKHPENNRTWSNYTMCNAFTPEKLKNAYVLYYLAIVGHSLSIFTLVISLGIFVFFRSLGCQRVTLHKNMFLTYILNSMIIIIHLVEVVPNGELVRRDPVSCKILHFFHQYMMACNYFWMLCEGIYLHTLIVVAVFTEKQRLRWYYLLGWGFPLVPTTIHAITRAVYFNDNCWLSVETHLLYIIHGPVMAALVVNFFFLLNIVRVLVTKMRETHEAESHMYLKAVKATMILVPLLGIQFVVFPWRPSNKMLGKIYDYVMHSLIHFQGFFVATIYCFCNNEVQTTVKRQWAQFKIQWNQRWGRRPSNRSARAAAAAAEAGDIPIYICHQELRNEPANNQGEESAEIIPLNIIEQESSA

T2: human amylin 3(a) receptor (human calcitonin receptor + RAMP-3) (human, UniProt P30988 25-474; O60896 24-148, limits assumed)
T2 sequence (looked up) 1: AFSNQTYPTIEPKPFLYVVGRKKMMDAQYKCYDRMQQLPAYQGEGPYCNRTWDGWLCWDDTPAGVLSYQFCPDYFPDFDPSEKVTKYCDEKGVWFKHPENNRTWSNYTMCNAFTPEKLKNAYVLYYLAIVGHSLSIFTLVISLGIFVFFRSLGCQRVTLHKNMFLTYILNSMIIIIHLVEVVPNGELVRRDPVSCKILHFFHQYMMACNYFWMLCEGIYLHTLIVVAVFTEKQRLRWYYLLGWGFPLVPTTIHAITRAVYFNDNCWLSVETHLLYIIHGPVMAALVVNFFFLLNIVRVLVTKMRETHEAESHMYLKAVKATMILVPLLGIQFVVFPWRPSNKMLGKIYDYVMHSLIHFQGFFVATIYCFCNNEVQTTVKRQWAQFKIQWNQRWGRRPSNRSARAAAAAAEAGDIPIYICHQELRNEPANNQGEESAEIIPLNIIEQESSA
T2 sequence (looked up) 2: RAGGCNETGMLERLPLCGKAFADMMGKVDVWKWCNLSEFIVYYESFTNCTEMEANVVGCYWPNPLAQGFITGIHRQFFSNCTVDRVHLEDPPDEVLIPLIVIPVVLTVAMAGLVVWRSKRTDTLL

T3: human calcitonin receptor (human, UniProt P30988 25-474)
T3 sequence (looked up): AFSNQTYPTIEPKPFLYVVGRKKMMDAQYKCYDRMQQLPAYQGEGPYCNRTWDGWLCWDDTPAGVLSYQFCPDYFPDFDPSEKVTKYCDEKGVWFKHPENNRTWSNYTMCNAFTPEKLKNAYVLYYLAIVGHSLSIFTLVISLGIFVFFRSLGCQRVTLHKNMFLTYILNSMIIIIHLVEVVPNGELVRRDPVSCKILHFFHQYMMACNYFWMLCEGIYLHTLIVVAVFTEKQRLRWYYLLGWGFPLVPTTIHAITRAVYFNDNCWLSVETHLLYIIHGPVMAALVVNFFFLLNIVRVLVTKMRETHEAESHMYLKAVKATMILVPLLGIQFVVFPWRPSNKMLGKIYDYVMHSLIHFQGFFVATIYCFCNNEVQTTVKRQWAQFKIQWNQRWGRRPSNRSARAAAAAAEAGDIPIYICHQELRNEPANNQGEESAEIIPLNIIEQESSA

T4: human amylin 3(a) receptor (human calcitonin receptor co-expressed with RAMP-3) (human, UniProt P30988 25-474; O60896 24-148, limits assumed)
T4 sequence (looked up) 1: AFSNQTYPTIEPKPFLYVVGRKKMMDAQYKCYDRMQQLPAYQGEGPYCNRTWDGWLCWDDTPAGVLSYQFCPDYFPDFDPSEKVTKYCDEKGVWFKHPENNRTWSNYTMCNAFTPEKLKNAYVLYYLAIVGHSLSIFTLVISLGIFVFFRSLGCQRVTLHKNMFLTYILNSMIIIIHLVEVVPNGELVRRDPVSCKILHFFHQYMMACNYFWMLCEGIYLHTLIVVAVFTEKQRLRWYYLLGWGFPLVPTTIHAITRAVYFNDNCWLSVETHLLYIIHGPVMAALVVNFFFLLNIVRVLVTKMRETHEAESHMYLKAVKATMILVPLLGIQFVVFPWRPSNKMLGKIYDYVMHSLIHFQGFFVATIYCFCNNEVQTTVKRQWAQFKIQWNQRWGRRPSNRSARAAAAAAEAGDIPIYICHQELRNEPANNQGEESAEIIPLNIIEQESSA
T4 sequence (looked up) 2: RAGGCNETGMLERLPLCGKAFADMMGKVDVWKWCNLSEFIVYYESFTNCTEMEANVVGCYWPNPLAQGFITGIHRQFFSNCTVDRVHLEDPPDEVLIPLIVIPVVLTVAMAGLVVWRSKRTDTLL


Columns and labels:
[1] = target: T1, human calcitonin receptor; assay: cell-based or functional assay
[2] = target: T2, human amylin 3(a) receptor (human …); assay: cell-based or functional assay
[3] = target: T2, human amylin 3(a) receptor (human …); assay: SPA competition binding, membranes of BHK cells with human calcitonin receptor + RAMP-3, displacement of 125I-rat amylin (Assay V)
Procedure: (§1) The binding assay was performed using scintillation proximity assay (SPA) beads (RPNQ0001) from PerkinElmer and cell membranes from the Amylin 3(a)/CRE-luc cells (as described in Assay (II)) were used. Membranes were prepared in the following way; the cells were rinsed with PBS and incubated with Versene for approximately 5 min before harvesting. The cells were flushed with PBS and the cell-suspension was centrifuged for 5 min at 1000 rpm. Cells were homogenized (ultrathurrax) in a buffer containing 20 mM Na-HEPES and 10 mM EDTA (pH 7.4) and centrifuged at 20.000 rpm for 15 min. The resulting pellet was resuspended, homogenized and centrifuged (20.000 rpm, 15 min) in a buffer containing 20 mM Na-HEPES and 0.1 mM EDTA (pH 7.4, buffer 2). The resulting pellet was resuspended in buffer 2 and protein concentration was measured (BCA protein Assay, Pierce). The homogenate was kept cold during the whole procedure. The membranes were kept at −80° C. until use. The assay was performed in a 384 well Optiplate (PerkinElmer) in a total volume of 40 ul. Membranes were mixed with SPA beads. Final concentration of membranes 35 ng/μL final and SPA beads was 0.05 mg/well. Test-compounds were dissolved in DMSO and further diluted in assay buffer (50 mM Hepes, pH 7.4, 1 mM CaCl2, 5 mM MgCl₂, 0.1% OA and 0.02% Tween20). […] The final mixture was incubated with shaking at 400 rpm for 120 min at 25° C. prior to centrifugation (1500 rpm, 10 min). Samples were analyzed on TopCounter™ (Packard). The IC₅₀ was calculated using (one site binding competition analysis) GraphPad Prism5 as a measure of receptor affinity.

[4] = target: T3, human calcitonin receptor; assay: cell-based or functional assay; remark: listed apart in the source
[5] = target: T4, human amylin 3(a) receptor (human …); assay: cell-based or functional assay
[6] = target: T4, human amylin 3(a) receptor (human …); assay: SPA competition binding (Assay V): displacement of 125I-rat amylin from membranes of BHK cells with human calcitonin receptor + RAMP-3
Procedure: as §1

Row | Binder | Ratio hCT/hAmylin funct. [1] | hAmylin-R funct. EC50 (pM) [2] [pM] | IC50 [3] [nM] | hCTR funct. EC50 (CRE luciferase reporter, BHK cells) [4] [nM] | Ratio hCT/hAmylin funct. (hCTR EC50 over hAmylin-R EC50) [5] | hAmylin-R funct. EC50 (CRE luciferase reporter, BHK cells) [5] [nM] | IC50 [6] [nM]
1 | {C20 diacid-γGlu}-KCNTATCATQRLAEFLRHSSPNFGPILPPTNVGSNTP-NH2 (disulfide 2-7; SMILES CC[C@H](C)[C@H](NC(=O)[C@@H]1CCCN1C(=O)CNC(=O)[C@H](Cc1ccccc1)NC(=O)[C@H](CC(N)=O)NC(=O)[C@@H]1CCCN1C(=O)[C@H](CO)NC(=O)[C@H](CO)NC(=O)[C@H](Cc1c[nH]cn1)NC(=O)[C@H](CCCNC(=N)N)NC(=O)[C@H](CC(C)C)NC(=O)[C@H](Cc1ccccc1)NC(=O)[C@H](CCC(=O)O)NC(=O)[C@H](C)NC(=O)[C@H](CC(C)C)NC(=O)[C@H](CCCNC(=N)N)NC(=O)[C@H](CCC(N)=O)NC(=O)[C@@H](NC(=O)[C@H](C)NC(=O)[C@@H]1CSSC[C@H](NC(=O)[C@H](CCCCN)NC(=O)CC[C@H](NC(=O)CCCCCCCCCCCCCCCCCCC(=O)O)C(=O)O)C(=O)N[C@@H](CC(N)=O)C(=O)N[C@@H]([C@@H](C)O)C(=O)N[C@@H](C)C(=O)N[C@@H]([C@@H](C)O)C(=O)N1)[C@@H](C)O)C(=O)N[C@@H](CC(C)C)C(=O)N1CCC[C@H]1C(=O)N1CCC[C@H]1C(=O)N[C@H](C(=O)N[C@@H](CC(N)=O)C(=O)N[C@H](C(=O)NCC(=O)N[C@@H](CO)C(=O)N[C@@H](CC(N)=O)C(=O)N[C@H](C(=O)N1CCC[C@H]1C(N)=O)[C@@H](C)O)C(C)C)[C@@H](C)O, disulfide and C-terminal amide as told for human amylin and the amide resins of the synthesis; also called compound 4) | 1.2 | 60 | 0.321 | – | – | – | –
2 | K([γGlu-γGlu-C20 diacid])CNTATCATQRLADFLRHSSPNFGAIPSSTNVGPRTY-NH2 (disulfide 2-7, also called compound 130) | – | – | – | 7.28 | 44.9 | 0.162 | 0.453
3 | {C20 diacid-γGlu}-KCNTATCATQRLAEFLRHSSPNFGAPLSSTNVGSNTP-NH2 (disulfide 2-7; SMILES CC(C)C[C@H](NC(=O)[C@H](CCCNC(=N)N)NC(=O)[C@H](CCC(N)=O)NC(=O)[C@@H](NC(=O)[C@H](C)NC(=O)[C@@H]1CSSC[C@H](NC(=O)[C@H](CCCCN)NC(=O)CC[C@H](NC(=O)CCCCCCCCCCCCCCCCCCC(=O)O)C(=O)O)C(=O)N[C@@H](CC(N)=O)C(=O)N[C@@H]([C@@H](C)O)C(=O)N[C@@H](C)C(=O)N[C@@H]([C@@H](C)O)C(=O)N1)[C@@H](C)O)C(=O)N[C@@H](C)C(=O)N[C@@H](CCC(=O)O)C(=O)N[C@@H](Cc1ccccc1)C(=O)N[C@@H](CC(C)C)C(=O)N[C@@H](CCCNC(=N)N)C(=O)N[C@@H](Cc1c[nH]cn1)C(=O)N[C@@H](CO)C(=O)N[C@@H](CO)C(=O)N1CCC[C@H]1C(=O)N[C@@H](CC(N)=O)C(=O)N[C@@H](Cc1ccccc1)C(=O)NCC(=O)N[C@@H](C)C(=O)N1CCC[C@H]1C(=O)N[C@@H](CC(C)C)C(=O)N[C@@H](CO)C(=O)N[C@@H](CO)C(=O)N[C@H](C(=O)N[C@@H](CC(N)=O)C(=O)N[C@H](C(=O)NCC(=O)N[C@@H](CO)C(=O)N[C@@H](CC(N)=O)C(=O)N[C@H](C(=O)N1CCC[C@H]1C(N)=O)[C@@H](C)O)C(C)C)[C@@H](C)O, also called compound 5) | 1 | 162 | 0.374 | – | – | – | –
